Legend:
[1] = target: … (EBV LMP2A) presented by HLA-A*0201 (human); test: cell-based or functional assay
[2] = target: … (HCMV pp65) presented by HLA-A*0201 (human); test: cell-based or functional assay

TCR recognizing … presented by A*0201 (PDB #3REV)
in vitro T cell activation assay (luciferase); targeting cassette design A [1]: 6.1
in vitro T cell activation assay (luciferase); targeting cassette design B [1]: 6.3
in vitro T cell activation assay (luciferase); targeting cassette design C [1]: 7.6
in vitro T cell activation assay (luciferase); targeting cassette design D [1]: 7
in vitro T cell activation assay (luciferase); targeting cassette design E [1]: 5.9
in vitro T cell activation assay (luciferase); targeting cassette design F [1]: 3.7
in vitro T cell activation assay (luciferase); targeting cassette design G [1]: 7.6
in vitro T cell activation assay (luciferase); targeting cassette design H [1]: 5.4
in vitro T cell activation assay (luciferase); targeting cassette design I [1]: 6.2
in vitro T cell activation assay (luciferase); targeting cassette design J [1]: 6.4
induction of luciferase, in vitro T cell activation assay; short cassette AAY [1]: 11.3
luciferase induction, in vitro T cell activation assay; short cassette 9AA (relative to uninfected controls) [1]: 12
luciferase induction, in vitro T cell activation assay; short cassette 17AA (relative to uninfected controls) [1]: 10.3
luciferase induction, in vitro T cell activation assay; short cassette 25AA (relative to uninfected controls) [1]: 14.6
luciferase induction, in vitro T cell activation assay; short cassette AAY (relative to uninfected controls) [1]: 11.3
luciferase induction, in vitro T cell activation assay; short cassette RR (relative to uninfected controls) [1]: 8.5

TCR recognizing … presented by A*0201 (PDB #5D2N)
in vitro T cell activation assay (luciferase); targeting cassette design A [2]: 32.5
in vitro T cell activation assay (luciferase); targeting cassette design B [2]: 31.8
in vitro T cell activation assay (luciferase); targeting cassette design C [2]: 29.1
in vitro T cell activation assay (luciferase); targeting cassette design D [2]: 29.1
in vitro T cell activation assay (luciferase); targeting cassette design E [2]: 28.4
in vitro T cell activation assay (luciferase); targeting cassette design F [2]: 20.4
in vitro T cell activation assay (luciferase); targeting cassette design G [2]: 35
in vitro T cell activation assay (luciferase); targeting cassette design H [2]: 30.3
in vitro T cell activation assay (luciferase); targeting cassette design I [2]: 22.5
in vitro T cell activation assay (luciferase); targeting cassette design J [2]: 38.1
induction of luciferase, in vitro T cell activation assay; short cassette AAY [2]: 24.5
luciferase induction, in vitro T cell activation assay; short cassette 9AA (relative to uninfected controls) [2]: 33.6
luciferase induction, in vitro T cell activation assay; short cassette 17AA (relative to uninfected controls) [2]: 42.8
luciferase induction, in vitro T cell activation assay; short cassette 25AA (relative to uninfected controls) [2]: 42.3
luciferase induction, in vitro T cell activation assay; short cassette AAY (relative to uninfected controls) [2]: 24.5
luciferase induction, in vitro T cell activation assay; short cassette DPP (linker designed to disrupt antigen processing) (relative to uninfected controls) [2]: 0.9
luciferase induction, in vitro T cell activation assay; short cassette RR (relative to uninfected controls) [2]: 21.7
